# Experimental data from patent US20240189443A1, “PD-L1 AND TLR7 DOUBLE-TARGETING NANOBODY COUPLING DRUG AND USE THEREOF IN ANTI-TUMOR” (SHANGHAI INSTITUTE OF MATERIA MEDICA, CHINESE ACADEMY OF …, priority 2021, published 2024).
# How the values were obtained:
# [1] = system: uninduced CT26 tumor cell; test: Early CT26 subcutaneous tumor-bearing model (tumor volume<50 mm^3); assay type: in vivo, BALB/c mouse
# Method: (§1) The uninduced CT26 tumor cell subcutaneous was inoculated into a female BALB/C mouse to construct a tumor-bearing mouse model in the two models, and the inoculation amount was 1×10^6 cells/; the mice were divided into two groups, and each group was 8 mice, that is, a blank control group mFc (the concentration was 10 mg/kg), and a coupling compound Nb16-SZU-101 group (the concentration was 10 mg/kg); and the administration dosage was 200 μL, and the administration manner was an abdominal administration. In the early model (the tumor volume was<50 mm^3), the drug was administered in Day 4, Day 7, Day 10, Day 13, Day 16, and the drug was administered for 5 times; in the late model (the tumor volume was greater than 200 mm^3), the drug was administered in Day 9, Day 12, Day 15, Day 17, and the drug was administered for 4 times. The tumor size was measured 2-3 times a week, and a tumor growth curve was drawn.
# [2] = target: T1, PD-1/PD-L1 (HEK293T/mPD-L1) (Mus musculus, UniProt Q9EP73); test: Flow cytometry PD-1/PD-L1 blocking activity assay of the nanobody coupling drug; assay type: binding; conditions: mouse PD-1-biotin 20 μg/mL
# T1 construct: expressed in transfected cells; host or cells: HEK293T
# [3] = system: tumor immune microenvironment (CT26 subcutaneous tumors); test: Tumor immunotyping analysis by flow cytometry after conjugate administration; assay type: in vivo, BALB/c mouse; conditions: compared to mFc group
# Method: At a mouse anatomical endpoint of example 8.1, subcutaneous tumors were taken, 150 mg of tumor tissue was taken and cut into meat paste, and the meat paste was oscillated and digested at 180 rpm for 1.5 h at 37° C. in hyaluronidase and collagenase IV, and processed into a single cell suspension. The pretreated cell suspension was divided into two parts, one part was used for immunotyping analysis of macrophages and dendritic cells, and one part was used for immune typing analysis of T cells and NK cells.
# The suspension treatment of macrophages and dendritic cell samples: the cells were treated with 2-4 mL sterile red blood cell lysis solution for 8 min and terminated with PBS buffer solution to remove red blood cells and fragments in the sample suspension; the cell sample was cleaned for use.
# T cell and NK cell sample suspension treatment: the cells were centrifuged with lymphocyte separation liquid to obtain a lymphocyte separation layer, that is, the lymphocyte separation layer was a tumor lymphocyte suspension, and wascleaned for use.
# The macrophages and dendritic cell samples and T cells and NK cell samples were sealed at 4° C. with an Fc receptor confining liquid for 1 hour, and non-specific staining caused by the Fc receptor was removed; cell surface protein staining is performed, specifically: M1 macrophages (FITC Rat Anti-Mouse CD45, PE-Cyanine7 Rat Anti-Mouse F4/80 and APC Rat anti-Mouse CD86), M2 macrophages (FITC RATw Anti-Mouse CD45 and PE-Cynine 7 RAT Anti-Mouse F4/80), dendritic cells (PE-Cy7 Anti-Mouse CD11c, BB515 Rat Anti-Mouse I-A/I-E, PE Hamster Anti-Mouse CD80, and APC Rat anti-Mouse CD86), CD4+T cells and CD8+T cells (FITC Hamster Anti-Mouse CD3e, PerCP-Cy™ 5.5 Rat Anti-Mouse CD4 and APC Rat Anti-Mouse CD8a), Treg cells (FITC Hamster Anti-Mouse CD3e, PerCP-CYy™ 5.5 Rat Anti-Mouse CD4 and PE Rat Anti-Mouse CD25), NK cells (CD3-FITC, CD49b-APC, CD69-PE), followed by dyeing on ice for 20 min.; then intracellular protein staining is performed, and after the cell is subjected to a fixed membrane rupture treatment, the cell is subjected to membrane rupture dyeing, specifically: M2 macrophages (MS CD206 Alexa 647 and ANTI-MOUSE LAP PE), functional T cells(ANTI-MOUSE GRANZYME B (NGZB) PE) containing granzyme, functional T cells (PE Rat Anti-Mouse IFN-γ) containing IFN-γ, Treg cells (ANTI-MOUSE/RAT FOXP3 APC), and then stained for 20 min on ice; after cleaning, re-suspending the sample cell sap, and performing on-machine detection on the flow cytometer.
# non-induced CT26 = test: Uninduced (low expression) PD-L1 CT26 subcutaneous tumor-bearing model; assay type: in vivo, BALB/c mouse; conditions: 10 mg/kg intraperitoneal, 4 doses
# Source text: In FIG. 8A, it has been shown that the non-induced CT26 cell surface PD-L1 expression is approximately 17.3%, and the expression level of PD-L1 is increased to 98.1% only after IFN-γ induction. Therefore, we researched and compared the effects of the coupling compound in the non-induced and induced CT26 mouse tumor model, respectively.
# In the two models, CT26 tumor cells were subcutaneously inoculated into female BALB/c mice before and after induction respectively to construct tumor-bearing mouse models, and the inoculation amount was 1×10^6 cells/one; the mice are randomly divided into two groupswith 6 mice of each group, that is, a blank control group mFc (the concentration is 10 mg/kg), and a coupling compound Nb16-SZU-101 group (the concentration was 10 mg/kg); the administration dosage was 200 μl, and the administration modes were both intraperitoneal administration; administration was performed on Day 2, Day 5, Day 8 and Day 11 respectively, and administration was carried out for 4 times; the size of the tumor was measured for 2-3 times every week, and a tumor growth curve was drawn; and anatomical weighing and photographing were performed on the mouse at Day 12.
# [4] = system: CD4+T cells, CD8+T cells, NK cells, macrophages; test: Immune cell deletion analysis of conjugate efficacy; assay type: in vivo, Balb/c mice
# Source text: Balb/c mice were randomized into 6 groups of 6 mouse each. Corresponding groups are: MFC group, Nb16-SZU-101 group, Nb16-SZU-101+anti-CD4 group, Nb16-SZU-101+anti-CD8 group, Nb16-SZU-101+anti-NK1.1 group, Nb16-SZU-101+chlorophosphate liposome group. The administration of the mFc and Nb16-SZU-101 was consistent with example 8.1.
# The immune cell deletion method comprised: deleting corresponding immune cells (CD4+T cells, CD8+T cells, NK cells) by intraperitoneal injection of antibody drugs (anti-CD4, anti-CD8, anti-NK1.1) respectively in Day 3 (200 ug/one)/Day 4 (100 ug/one)/Day 5 (100 ug/one), or intraperitoneal injection of chlorophosphate-liposomes to remove macrophages.
# On Day 14 the mice would be euthanized.
# [5] = system: uninduced CT26 tumor cell; test: Late CT26 subcutaneous tumor-bearing model (tumor volume>200 mm^3); assay type: in vivo, BALB/c mouse
# Method: as §1
# CT26 tumor cells = test: Re-tumor model with CT26 cells in mice with regressed tumor; assay type: in vivo, mouse; conditions: re-tumor 1 week after tumor faded
# Source text: Moreover, in the early model, the coupling compound therapy will cause tumor regression of up to 62.5% tumor-bearing mice (FIG. 10B); in the late model, the compound drug will cause 12.5% tumor-bearing mice to have tumor regression (FIG. 10D).
# T1 sequence (Q9EP73 19-290): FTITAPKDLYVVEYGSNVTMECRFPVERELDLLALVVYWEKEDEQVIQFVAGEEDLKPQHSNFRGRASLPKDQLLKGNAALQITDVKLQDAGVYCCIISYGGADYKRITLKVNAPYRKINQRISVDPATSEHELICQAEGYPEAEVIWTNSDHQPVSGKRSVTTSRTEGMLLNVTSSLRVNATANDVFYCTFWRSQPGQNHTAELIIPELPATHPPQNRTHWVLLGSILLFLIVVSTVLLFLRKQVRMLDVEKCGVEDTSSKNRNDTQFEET
molecule,measurement,setting,value
"Nb16-SZU-101: PD-L1 and TLR7 dual-targeting nanobody coupling drug, Nb16 coupled with SZU-101-NHS active ester (conjugate, left off: a dimerising Fc or GST) QVQLQESGGGSVQAGGSLRLSCAASGYTDRNYWMGWFRQAPGKEREGVAALYTRTGSTYYADSVKGRFTISHDNAKNTLYLQMNSLKPEDTAVYYCAADSNAYGLAPLHHYWGQGTQVTVSS",Lifetime (survival),[1],significantly prolong the lifetime
same,Tumor growth inhibition rate,"[1]; 10 mg/kg abdominal administration, 5 doses",80.3%
same,Tumor-bearing mice with tumor regression,"[1]; 10 mg/kg, 5 doses",up to 62.5%
same,PD-1/PD-L1 blocking activity of conjugate compared with Nb16,[2],does not change the blocking activity
same,Expression of granzyme B and IFN-γ in tumor-infiltrating cytotoxic cells,[3],promote the expression
same,Function of tumor-infiltrating cytotoxic cells (CD8+T cells and NK cells),[3],significantly increases
same,Infiltration of IFN-γ+CD4+T cells,[3],significantly increased
same,Infiltration of TGF-β+macrophages,[3],reduce the infiltration
same,Macrophage expression of PD-L1 in tumor microenvironment,[3],promotes macrophage expression of PD-L1
same,Re-polarization of tumor-associated macrophages,[3],promote the re-polarization
same,Maturation of dendritic cells,[3]; tumors of example 8.1,promotes maturation of dendritic cells
same,Tumor growth inhibition rate,non-induced CT26,78.9%
same,Effect of deletion of CD4+T cells and macrophages on efficacy,[4]; anti-CD4 or chlorophosphate liposomes intraperitoneal,little influence on the efficacy
same,Effect of deletion of CD8+T cells and NK cells on efficacy,[4]; anti-CD8 or anti-NK1.1 intraperitoneal,greatly affects the efficacy
same,Lifetime (survival),[5],significantly prolong the lifetime
same,Tumor growth inhibition rate,"[5]; 10 mg/kg abdominal administration, 4 doses",78.9%
same,Tumor-bearing mice with tumor regression,"[5]; 10 mg/kg, 4 doses",12.5%
same,Tumor growth after re-tumor of CT26 cells,CT26 tumor cells,does not grow the tumor within 40 days
